How the values were obtained:
Assay in all cases: ELISA; S1 antigens coated; H2L2 mAbs at one concentration, 0.4 μg/ml; OD450nm
Details in all cases: both partners purified
[1] = molecular target: T1, S1 of OC43 isolate NL/2019 (Human coronavirus OC43, NL/2019, strain)
T1 construct: source: HEK-293T, transient, purified from culture supernatant (Protein A sepharose)
T1 chain: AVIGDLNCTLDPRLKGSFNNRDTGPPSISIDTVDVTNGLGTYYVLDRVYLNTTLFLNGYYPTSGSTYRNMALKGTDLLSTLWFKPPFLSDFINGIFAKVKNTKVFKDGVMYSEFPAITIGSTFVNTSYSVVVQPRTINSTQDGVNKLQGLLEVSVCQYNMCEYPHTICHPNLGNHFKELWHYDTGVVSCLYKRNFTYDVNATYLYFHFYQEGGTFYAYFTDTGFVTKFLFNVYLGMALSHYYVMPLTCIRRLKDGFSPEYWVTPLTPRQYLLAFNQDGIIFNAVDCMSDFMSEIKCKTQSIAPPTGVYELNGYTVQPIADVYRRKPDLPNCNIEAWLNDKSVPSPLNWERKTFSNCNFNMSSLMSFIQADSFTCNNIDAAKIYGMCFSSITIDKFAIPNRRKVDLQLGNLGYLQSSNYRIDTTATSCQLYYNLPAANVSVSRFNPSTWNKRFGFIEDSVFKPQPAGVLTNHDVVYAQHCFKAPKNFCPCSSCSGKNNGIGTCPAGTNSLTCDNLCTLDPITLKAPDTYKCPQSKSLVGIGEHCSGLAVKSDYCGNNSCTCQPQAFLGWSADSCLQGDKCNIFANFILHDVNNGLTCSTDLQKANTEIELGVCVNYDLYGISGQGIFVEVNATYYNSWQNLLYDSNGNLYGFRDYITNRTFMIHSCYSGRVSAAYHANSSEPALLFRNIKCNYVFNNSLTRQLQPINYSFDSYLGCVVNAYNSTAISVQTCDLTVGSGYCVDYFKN

[2] = molecular target: T2, S1 of OC43 isolate USA/1990(A-II) (Human coronavirus OC43, USA/1990(A-II) …, strain)
T2 construct: source: HEK-293T, transient, purified from culture supernatant (Protein A sepharose)
T2 chain: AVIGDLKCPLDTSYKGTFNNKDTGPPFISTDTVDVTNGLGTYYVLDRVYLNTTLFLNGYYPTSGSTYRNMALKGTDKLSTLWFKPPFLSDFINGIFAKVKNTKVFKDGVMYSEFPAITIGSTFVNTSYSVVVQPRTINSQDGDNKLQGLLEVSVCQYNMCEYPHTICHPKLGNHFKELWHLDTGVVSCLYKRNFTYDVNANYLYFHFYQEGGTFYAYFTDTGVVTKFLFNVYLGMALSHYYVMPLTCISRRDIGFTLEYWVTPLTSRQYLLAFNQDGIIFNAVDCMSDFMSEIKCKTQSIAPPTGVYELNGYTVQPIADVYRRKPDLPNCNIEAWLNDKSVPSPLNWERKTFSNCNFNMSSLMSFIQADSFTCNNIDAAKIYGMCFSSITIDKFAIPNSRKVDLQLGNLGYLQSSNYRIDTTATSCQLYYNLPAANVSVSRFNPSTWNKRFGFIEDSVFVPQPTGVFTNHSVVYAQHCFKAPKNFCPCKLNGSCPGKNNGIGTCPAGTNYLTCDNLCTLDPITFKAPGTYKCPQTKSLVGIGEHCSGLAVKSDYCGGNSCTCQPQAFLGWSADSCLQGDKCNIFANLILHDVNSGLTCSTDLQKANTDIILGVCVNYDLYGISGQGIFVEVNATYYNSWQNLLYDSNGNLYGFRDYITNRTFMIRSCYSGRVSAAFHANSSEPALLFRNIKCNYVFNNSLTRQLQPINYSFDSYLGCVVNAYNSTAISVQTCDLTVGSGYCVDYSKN

[3] = molecular target: T3, S1 of OC43 isolate USA/1990(B) (Human coronavirus OC43, USA/1990(B) …, strain)
T3 construct: source: HEK-293T, transient, purified from culture supernatant (Protein A sepharose)
T3 chain: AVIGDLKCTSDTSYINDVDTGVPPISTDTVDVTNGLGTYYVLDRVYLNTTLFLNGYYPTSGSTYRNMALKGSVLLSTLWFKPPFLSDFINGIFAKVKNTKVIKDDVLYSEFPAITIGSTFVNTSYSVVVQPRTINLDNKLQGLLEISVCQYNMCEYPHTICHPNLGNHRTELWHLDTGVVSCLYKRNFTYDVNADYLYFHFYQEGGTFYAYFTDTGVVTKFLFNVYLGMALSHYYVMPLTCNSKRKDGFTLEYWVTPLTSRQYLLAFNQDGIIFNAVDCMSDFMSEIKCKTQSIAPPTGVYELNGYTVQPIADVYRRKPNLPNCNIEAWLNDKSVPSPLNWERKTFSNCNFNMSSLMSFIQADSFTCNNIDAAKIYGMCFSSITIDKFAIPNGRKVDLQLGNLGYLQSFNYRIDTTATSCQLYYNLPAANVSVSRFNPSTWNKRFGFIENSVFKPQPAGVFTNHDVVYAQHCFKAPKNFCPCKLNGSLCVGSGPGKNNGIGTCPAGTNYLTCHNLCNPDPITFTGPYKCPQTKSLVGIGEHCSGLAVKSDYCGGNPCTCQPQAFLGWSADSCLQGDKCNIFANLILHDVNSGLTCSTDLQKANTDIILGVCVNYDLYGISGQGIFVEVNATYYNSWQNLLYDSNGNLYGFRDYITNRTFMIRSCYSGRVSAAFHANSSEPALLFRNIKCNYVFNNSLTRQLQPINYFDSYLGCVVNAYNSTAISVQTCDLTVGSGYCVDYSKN

[4] = molecular target: T4, S1 of OC43 isolate NL/2004 (Human coronavirus OC43, NL/2004, strain)
T4 construct: source: HEK-293T, transient, purified from culture supernatant (Protein A sepharose)
T4 chain: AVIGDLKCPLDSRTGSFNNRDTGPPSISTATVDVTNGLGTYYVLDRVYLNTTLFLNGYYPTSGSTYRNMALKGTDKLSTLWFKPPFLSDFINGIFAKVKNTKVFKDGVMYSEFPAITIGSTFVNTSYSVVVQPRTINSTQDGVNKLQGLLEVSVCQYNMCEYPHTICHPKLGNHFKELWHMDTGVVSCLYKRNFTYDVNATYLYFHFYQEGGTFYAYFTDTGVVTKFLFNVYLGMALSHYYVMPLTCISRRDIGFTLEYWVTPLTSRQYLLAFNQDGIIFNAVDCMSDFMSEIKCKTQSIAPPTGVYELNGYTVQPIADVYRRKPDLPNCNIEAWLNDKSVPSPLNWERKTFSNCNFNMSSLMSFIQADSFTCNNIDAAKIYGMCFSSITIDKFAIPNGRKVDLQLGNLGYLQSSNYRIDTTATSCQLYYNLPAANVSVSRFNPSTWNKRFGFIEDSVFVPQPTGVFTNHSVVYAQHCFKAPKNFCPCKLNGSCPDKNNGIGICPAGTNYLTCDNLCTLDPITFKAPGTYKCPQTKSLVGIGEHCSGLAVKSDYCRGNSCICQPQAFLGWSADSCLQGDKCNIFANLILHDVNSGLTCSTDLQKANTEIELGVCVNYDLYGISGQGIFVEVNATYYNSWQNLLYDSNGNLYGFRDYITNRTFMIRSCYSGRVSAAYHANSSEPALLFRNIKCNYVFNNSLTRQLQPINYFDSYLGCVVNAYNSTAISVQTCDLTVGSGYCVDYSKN

[5] = molecular target: T5, S1 of OC43 isolate BE/2004 (Human coronavirus OC43, BE/2004, UniProt Q4VID5, strain)
T5 construct: source: HEK-293T, transient, purified from culture supernatant (Protein A sepharose)

[6] = molecular target: T6, S1 of bovine coronavirus (BCoV), strain Mebus (Bovine coronavirus (strain Mebus) …, UniProt P15777)
T6 construct: also called BCoV S1; source: HEK-293T, purified (Protein A sepharose)

[7] = molecular target: T7, S1 of equine coronavirus (ECoV), strain NC99 (Equine coronavirus, strain NC99, UniProt A8R4D0, strain)
T7 construct: also called ECoV S1; source: HEK-293T, purified (Protein A sepharose)

Measured: binding result

T6 sequence (P15777 14-763): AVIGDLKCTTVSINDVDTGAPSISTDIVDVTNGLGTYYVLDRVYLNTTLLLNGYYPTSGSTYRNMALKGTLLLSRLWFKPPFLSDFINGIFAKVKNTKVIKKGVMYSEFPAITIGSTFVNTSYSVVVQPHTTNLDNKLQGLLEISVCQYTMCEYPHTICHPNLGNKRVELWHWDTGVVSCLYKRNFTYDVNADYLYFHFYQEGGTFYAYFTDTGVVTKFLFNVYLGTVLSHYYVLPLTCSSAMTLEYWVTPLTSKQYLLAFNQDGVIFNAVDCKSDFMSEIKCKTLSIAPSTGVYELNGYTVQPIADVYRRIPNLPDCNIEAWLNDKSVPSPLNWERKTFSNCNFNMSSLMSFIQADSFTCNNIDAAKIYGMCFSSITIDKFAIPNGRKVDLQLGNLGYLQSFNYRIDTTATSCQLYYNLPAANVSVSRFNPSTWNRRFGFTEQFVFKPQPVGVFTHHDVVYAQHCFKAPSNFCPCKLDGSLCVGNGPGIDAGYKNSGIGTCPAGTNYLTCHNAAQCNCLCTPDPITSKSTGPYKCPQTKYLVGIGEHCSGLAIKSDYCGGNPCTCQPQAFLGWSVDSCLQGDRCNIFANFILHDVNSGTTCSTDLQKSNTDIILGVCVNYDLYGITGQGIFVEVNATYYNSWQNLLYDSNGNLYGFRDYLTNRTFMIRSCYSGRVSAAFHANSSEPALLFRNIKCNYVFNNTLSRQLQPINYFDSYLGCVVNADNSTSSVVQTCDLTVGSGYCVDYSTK

B1: 56E10 H2L2 monoclonal antibody (antibody, V domains shown)
VH: QVQLQESGPGLVKPSETLSLTCTVSGGSISGYYWSWIRQPPGKGLEWIGYIFYNGNTNYNPSLKSRVTTSLDTSKNQFSLKLISVTGADTAVYYCVRTSLYYFDYWGQGTLVTVSS
VL: DIQMTQSPSSLSASVGDRVTITCQASQDISNFLNWYQQKPGKAPKLLIYDTSSLETGVPSRFSGSGSETDFTFTISSLQPEDIATYYCQQYDNLPLTFGGGTKVEIK
notes: also called 56E10 (H2L2 format)
binds: [1] | [2] | [3] | [4] | [5]

B2: 45B9 H2L2 monoclonal antibody (antibody, V domains shown)
VH: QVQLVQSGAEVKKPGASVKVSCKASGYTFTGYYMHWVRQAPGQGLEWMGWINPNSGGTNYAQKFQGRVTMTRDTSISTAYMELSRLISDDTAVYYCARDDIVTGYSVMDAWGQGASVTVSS
VL: DIQMTQSPSSLSASVGDRVTITCRASQSISNYLNWYQQKPGKAPTLLIYAASSLQSGVPSRFSGSGSGTDFTLTISSLQPEDFATYYCQPSYSSPYTFGQGTKLEIK
notes: also called 45B9 (H2L2 format)
binds: [1] | [2] | [6] | [3] | [4] | [5] | [7]

B3: 65A11 H2L2 monoclonal antibody (antibody, V domains shown)
VH: QVQMVESGGGVVQPGRSLRLSCAASGFSFSSYGMHWVRQAPGKGLEWVAVIWSDVNYKFYADSVKGRFTISRDNSKNTLSLQMNSLRAEDTAVYYCARDSGLRYFDWDYRGYFDLWGRGTLVTVSS
VL: not shown
notes: also called 65A11 (H2L2 format)
binds: [6]
